Data published in publication PMC5482323.

Tests used:
basigin (Homo sapiens) = basigin (Homo sapiens) (UniProt P35613); settings: cited from earlier work
[1] = target: basigin (CD147), Ig domains 1 and 2 of the short isoform (aa 22-205) (UniProt P35613); experiment: SPR; BIAcore T200; basigin immobilised on a CM5 chip by amine coupling (950 RU); PfRH5 injected as a twofold dilution series from 2 uM, 120 s at 30 uL/min, 300 s dissociation; 20 C; 10 mM HEPES pH 7.4, 150 mM NaCl, 3 mM EDTA, 0.005% Tween-20, 2 mg/mL dextran, 1 mg/mL salmon sperm DNA; global 1:1 interaction model

In the case of PfRH5 (from UniProt Q8IFM5), the Kd (basigin (Homo sapiens)) is given as 1000 nM.

“Plasmodium falciparum reticulocyte-binding protein homolog 5 with C-terminal C-tag (EPEA) (from UniProt Q8IFM5 26-526) (domain or fragment)” showed a Kd [1] of 390 nM.

“Plasmodium falciparum reticulocyte-binding protein homolog 5 with C-terminal hexa-histidine tag (from UniProt Q8IFM5 26-526) (domain or fragment)” showed a Kd [1] of 830 nM.
